Measured values as given in patent publication US20210115124A1 (Genentech, published 2021).
Changes are numbered by the printed parent chain. Numbers in names are those of the source.

T1: human VEGF (hVEGF) (human, UniProt P15692 181-395)
T1 construct: also called VEGF-A
T1 sequence: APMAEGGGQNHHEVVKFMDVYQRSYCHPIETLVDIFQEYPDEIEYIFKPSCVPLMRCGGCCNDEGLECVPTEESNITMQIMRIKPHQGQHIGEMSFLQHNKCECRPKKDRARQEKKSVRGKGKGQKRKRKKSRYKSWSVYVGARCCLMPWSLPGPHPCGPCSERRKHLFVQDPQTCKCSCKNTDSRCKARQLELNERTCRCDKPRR

T2: VEGF (as used in the HUVEC migration assay) (Homo sapiens (Human), UniProt P15692 181-395)
T2 sequence: T1 sequence

B1: G6.31 HC-A53R (Fab, name in Kabat numbering, V domains shown)
VH: EVQLVESGGGLVQPGGSLRLSCAASGFTISDYWIHWVRQAPGKGLEWVAGITPRGGYTYYADSVKGRFTISADTSKNTAYLQMNSLRAEDTAVYYCARFVFFLPYAMDYWGQGTLVTVSS
VL: DIQMTQSPSSLSASVGDRVTITCRASQDVSTAVAWYQQKPGKAPKLLIYSASFLYSGVPSRFSGSGSGTDFTLTISSLQPEDFATYYCQQGYGNPFTFGQGTKVEIK
notes: Fab
B2: G6.31 HC-A40E (Fab, name in Kabat numbering, V domains shown)
VH: B1 VH with A40E, R54A
VL: B1 VL
notes: Fab
B3: G6.31 HC-T57E (Fab, name in Kabat numbering, V domains shown)
VH: B1 VH with R54A, T58E
VL: B1 VL
notes: Fab
B4: G6.31 HC-Q81S (Fab, name in Kabat numbering, V domains shown)
VH: B1 VH with R54A, Q82S
VL: B1 VL
notes: Fab
B5: G6.31 HC-N82aR (Fab, name in Kabat numbering, V domains shown)
VH: B1 VH with R54A, N84R
VL: B1 VL
notes: Fab
B6: G6.31 HC-Y58R (Fab, name in Kabat numbering, V domains shown)
VH: B1 VH with R54A, Y59R
VL: B1 VL
notes: Fab
B7: G6.31 LC-N94A (Fab, V domains shown)
VH: B1 VH with R54A
VL: B1 VL with N94A
notes: Fab
B8: G6.31 AAEE (LC-N94A.LC-F83A.HC-A40E.HC-T57E) (Fab, V domains shown)
VH: B1 VH with A40E, R54A, T58E
VL: B1 VL with F83A, N94A
notes: Fab; also called HC-A40E, HC-T57E, LC-F83A, LC-N94A
B9: G6.31 LC-N94A.LC-F83A (Fab, V domains shown)
VH: B1 VH with R54A
VL: B1 VL with F83A, N94A
notes: Fab; also called LC-F83A, LC-N94A; LCcombo5
B10: HA100K-G6.31 AARR (other)
VH: B1 VH with R54A, Y59R, N84R
VL: B1 VL with F83A, N94A
modifications: free hinge cysteine of the Fab-C heavy chain linked through maleimide to linear 100 kDa hyaluronic acid
B11: G6.31 LC-N94Q (Fab, V domains shown)
VH: B1 VH with R54A
VL: B1 VL with N94Q
notes: Fab
B12: G6.31 LC-L73G (Fab, V domains shown)
VH: B1 VH with R54A
VL: B1 VL with L73G
notes: Fab
B13: G6.31 LC-F83A (Fab, V domains shown)
VH: B1 VH with R54A
VL: B1 VL with F83A
notes: Fab
B14: G6.31 LC-Y36G (Fab, V domains shown)
VH: B1 VH with R54A
VL: B1 VL with Y36G
notes: Fab
B15: G6.31 LC-S50M (Fab, V domains shown)
VH: B1 VH with R54A
VL: B1 VL with S50M
notes: Fab
B16: G6.31 LC-Q89T (Fab, V domains shown)
VH: B1 VH with R54A
VL: B1 VL with Q89T
notes: Fab
B17: G6.31 LC-D28R (Fab, V domains shown)
VH: B1 VH with R54A
VL: B1 VL with D28R
notes: Fab
B18: G6.31 LC-F83V (Fab, V domains shown)
VH: B1 VH with R54A
VL: B1 VL with F83V
notes: Fab

Biological target: T1, human VEGF (hVEGF)
Assay: BIACORE SPR on immobilised hVEGF; label beside the mutation on the structure of the VEGF-bound G6 Fab (PDB 2FJG)

Binder | fold change in binding affinity (Kd) compared to G6.31 [x]
B1 | 4
B2 | 4
B3 | 8
B4 | 3
B5 | 7
B6 | 9

Biological target: T1, human VEGF (hVEGF)
Assay: SPR single-cycle;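 for Fold change (relative to G6.31): fab variants injected over hVEGF immobilized on a CM5 chip (Biacore T200), threefold dilution series from 0.02 to 50 nM, kinetics fitted with a 1:1 Langmuir model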
Excerpt: (§1) To determine the binding affinity of selected Fab variants, SPR measurement with a BIACORE® T200 instrument was used. Briefly, series S sensor chip CM5 was activated with 1-ethyl-3-(3-dimethylaminopropyl) carbodiimide (EDC) and N-hydroxysuccinimide (NHS) reagents according to the supplier's instructions, and human VEGF (hVEGF) was coupled to achieve 50-80 response units (RU), then following by blocking un-reacted groups with 1M ethanolamine.
(§2) Three-fold serial dilutions of Fab in HBS-P buffer (0.01 M HEPES pH 7.4, 0.15 M NaCl, 0.005% surfactant P20) from low (0.02 nM) to high (50 nM) were injected (flow rate: 30 μl/min). The binding responses on hVEGF were corrected by subtracting of RU from a blank flow cell. The sensorgram was recorded and subject to reference and buffer subtraction before evaluating by BIACORE® T200 Evaluation Software (version 2.0). Association rates (kₒₙ) and dissociation rates (koff) were calculated using a simple one-to-one Langmuir binding model. The equilibrium dissociation constant (Kd) was calculated as the ratio koff/kₒₙ.

Binder | Fold change (relative to G6.31) [fold] | Kd [nM] | koff [s⁻¹] | kon [M⁻¹ s⁻¹]
B2 | 0.6 | 2.63 | 0.000517 | 197000

Biological target: T2, VEGF (as used in the HUVEC migration …)
Assay: cell-based or functional assay

Binder | IC50 (read off the curve), VEGF-induced HUVEC migration [nM]
B7 | ~7

Biological target: T2, VEGF (as used in the HUVEC migration …)
Assay: cell-based or functional assay
Remark: another data set of the same source

Binder | IC50 relative to G6.31, VEGF-induced HUVEC migration [fold]
B8 | 0.9
B7 | 5.2
B9 | 5.1

Biological target: human VEGF165 (human, UniProt P15692-4 27-191)
Assay: cell-based or functional assay

Binder | fold increase in potency against the unconjugated parent Fab, pKDR assay [fold]
B10 | ~7

Biological target: T1, human VEGF (hVEGF)
Assay: SPR multiple-cycle
Excerpt: as §1, §2

Binder | Kd [nM] | koff [s⁻¹] | kon [M⁻¹ s⁻¹]
B11 | 1.14 | 0.000362 | 318000
B7 | 1.06 | 0.00169 | 1.59e+06

Biological target: T1, human VEGF (hVEGF)
Assay: SPR

Binder | fold increase in affinity compared to wild-type G6.31 [fold]
B3 | 8 to 9
B12 | ~1.6
B13 | 3
B5 | ~6.6
B6 | 8 to 9

Biological target: T1, human VEGF (hVEGF)
Assay: SPR
Remark: another data set of the same source
Excerpt: as §1, §2

Binder | Kd [nM] | koff [s⁻¹] | kon [M⁻¹ s⁻¹]
B9 | 1.43 | 0.000766 | 537000

Biological target: T1, human VEGF (hVEGF)
Assay: BIACORE SPR on immobilised hVEGF; label beside the mutation on the structure of the VEGF-bound G6 Fab (PDB 2FJG)
Remark: another data set of the same source

Binder | fold change in binding affinity (Kd) compared to G6.31 [x]
B14 | 0.5
B15 | 1
B12 | 2
B16 | 4
B17 | 3
B13 | 3

Biological target: T1, human VEGF (hVEGF)
Assay: SPR
Remark: another data set of the same source
Excerpt: as §1, §2

Binder | Fold improved (relative to WT) [fold] | Kd [nM] | koff [s⁻¹] | kon [M⁻¹ s⁻¹]
B7 | 0.5 | 1.06 | 0.00169 | 1.59e+06
B13 | 4 | 0.132 | 0.000218 | 1.65e+06
B5 | 6.8 | 0.077 | 0.000124 | 1.62e+06
B6 | 6.9 | 0.076 | 0.000184 | 2.42e+06

Biological target: T1, human VEGF (hVEGF)
Assay: SPR (FIG. 10D)

Binder | fold increase in affinity [fold]
B18 | 3

Biological target: T1, human VEGF (hVEGF)
Assay: SPR
Remark: another data set of the same source
Excerpt: as §1, §2

Binder | Kd [nM] | koff [s⁻¹] | kon [M⁻¹ s⁻¹]
B8 | 0.584 | 0.000741 | 1.27e+06
B9 | 1.71 | 0.00111 | 648000

Biological target: T1, human VEGF (hVEGF)
Assay: SPR single-cycle;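 for Fold change (relative to G6.31): fab variants injected over hVEGF immobilized on a CM5 chip (Biacore T200), threefold dilution series from 0.02 to 50 nM, kinetics fitted with a 1:1 Langmuir model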
Remark: another data set of the same source
Excerpt: as §1, §2

Binder | Fold difference (relative to G6.31) [fold] | Kd [nM] | koff [s⁻¹] | kon [M⁻¹ s⁻¹]
B1 | 3.7 | 0.42 | 0.00035 | 829000
B2 | 3.8 | 0.41 | 0.000466 | 1.13e+06
B14 | 0.6 | 2.47 | 0.000558 | 225000
B11 | 0.3 | 4.78 | 0.00133 | 278000
B7 | 0.4 | 3.93 | 0.00131 | 334000
B15 | 1.2 | 1.31 | 0.000611 | 467000
B3 | 7.7 | 0.2 | 0.000402 | 1.93e+06
B12 | 1.4 | 1.09 | 0.000644 | 589000
B16 | 3.7 | 0.42 | 0.000493 | 1.17e+06
B4 | 3.4 | 0.45 | 0.000487 | 1.07e+06
B17 | 2.8 | 0.56 | 0.000655 | 1.17e+06
B13 | 3.1 | 0.5 | 0.000433 | 855000
B5 | 6.7 | 0.23 | 0.000322 | 1.39e+06
B6 | 9.1 | 0.17 | 0.000255 | 1.48e+06

Biological target: T1, human VEGF (hVEGF)
Assay: SPR
Remark: another data set of the same source
Excerpt: as §1, §2

Binder | Kd [nM] | koff [s⁻¹] | kon [M⁻¹ s⁻¹]
B8 | 0.58 | 0.000741 | 1.27e+06
B7 | 1.06 | 0.00169 | 1.56e+06
B9 | 1.71 | 0.00111 | 648000
